Reference: the supplement of paper PMC9116672
± gives the standard deviation of the averaged measurements or the uncertainty stated by the source.

Tests used:
[1] = duplex melting temperature (HRM, EvaGreen); higher = more stable duplex
Method: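 Listed DNA strand annealed 1:1 with its complementary strand (95 °C 5 min, 0.1 °C/s to 20 °C). Melted in 1x NNE buffer (500 mM NaCl, 10 mM Na2HPO4, 1 mM EDTA, pH 7.0) with 1x EvaGreen on a LightCycler96 (37 to 97 °C, 0.1 °C/s). Tm is the peak of -dF/dT at the stated total duplex concentration; 4 replicates are averaged. PS oligos are non-stereospecific (Rp/Sp mixtures).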

[2] = duplex formation free energy ΔG50 (Van't Hoff fit of HRM Tm); higher = less stable duplex; conditions: temperature for dG: 50 °C, NaCl: 500 mM (unadjusted)
Method: (§1)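 Duplex of the listed DNA strand with its complement, in 1x NNE buffer (500 mM NaCl, pH 7.0) with 1x EvaGreen. ΔH and ΔS come from a Van't Hoff linear fit of 1/Tm against ln(CT/4) over 1-20 uM, using HRM Tm values.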

[3] = duplex formation enthalpy ΔH (Van't Hoff fit of HRM Tm); higher = less exothermic duplex formation; conditions: temperature for dG: 50 °C, NaCl: 500 mM (unadjusted)
Method: as §1

[4] = duplex formation entropy ΔS (Van't Hoff fit of HRM Tm); higher = smaller entropy loss on duplex formation; conditions: temperature for dG: 50 °C, NaCl: 500 mM (unadjusted)
Method: as §1

[5] = duplex concentration 1 µM, backbone: PS-PO (listed strand fully phosphorothioate, complement phosphodiester)
[6] = duplex concentration 1 µM, backbone: PS-PS (both strands fully phosphorothioate)
[7] = duplex concentration 2.5 µM, backbone: PO-PO (both strands phosphodiester DNA)
[8] = duplex concentration 2.5 µM, backbone: PS-PO (listed strand fully phosphorothioate, complement phosphodiester)
[9] = duplex concentration 2.5 µM, backbone: PS-PS (both strands fully phosphorothioate)
[10] = duplex concentration 5 µM, backbone: PO-PO (both strands phosphodiester DNA)
[11] = duplex concentration 5 µM, backbone: PS-PO (listed strand fully phosphorothioate, complement phosphodiester)
[12] = duplex concentration 5 µM, backbone: PS-PS (both strands fully phosphorothioate)
[13] = duplex concentration 7.5 µM, backbone: PO-PO (both strands phosphodiester DNA)
[14] = duplex concentration 7.5 µM, backbone: PS-PO (listed strand fully phosphorothioate, complement phosphodiester)
[15] = duplex concentration 7.5 µM, backbone: PS-PS (both strands fully phosphorothioate)
[16] = duplex concentration 10 µM, backbone: PO-PO (both strands phosphodiester DNA)
[17] = duplex concentration 10 µM, backbone: PS-PO (listed strand fully phosphorothioate, complement phosphodiester)
[18] = duplex concentration 10 µM, backbone: PS-PS (both strands fully phosphorothioate)
[19] = duplex concentration 15 µM, backbone: PO-PO (both strands phosphodiester DNA)
[20] = duplex concentration 15 µM, backbone: PS-PO (listed strand fully phosphorothioate, complement phosphodiester)
[21] = duplex concentration 15 µM, backbone: PS-PS (both strands fully phosphorothioate)
[22] = duplex concentration 20 µM, backbone: PO-PO (both strands phosphodiester DNA)
[23] = duplex concentration 20 µM, backbone: PS-PO (listed strand fully phosphorothioate, complement phosphodiester)
[24] = duplex concentration 20 µM, backbone: PS-PS (both strands fully phosphorothioate)
[25] = backbone: PO-PO (both strands phosphodiester DNA)
[26] = backbone: PS-PO (listed strand fully phosphorothioate, complement phosphodiester)
[27] = backbone: PS-PS (both strands fully phosphorothioate)
[28] = duplex concentration 1 µM, backbone: PO-PO (both strands phosphodiester DNA)

With TTCTACATCCATCTTAATCCCA the duplex melting temperature [1, 5] was 59.7 °C, the duplex melting temperature [1, 6] was 49.9 ± 0.91 °C and the duplex melting temperature [1, 7] was 69.29 ± 0.65 °C. It also gave a duplex melting temperature [1, 8] of 60.3 ± 0.71 °C, a duplex melting temperature [1, 9] of 52.2 ± 0.78 °C and a duplex melting temperature [1, 10] of 70.58 ± 0.52 °C. It also gave a duplex melting temperature [1, 11] of 61.7 ± 1 °C, a duplex melting temperature [1, 12] of 54.2 ± 0.62 °C and a duplex melting temperature [1, 13] of 71.5 ± 0.27 °C. For the same sequence, the duplex melting temperature [1, 14] was 63 ± 0.72 °C, the duplex melting temperature [1, 15] was 55.53 ± 0.29 °C and the duplex melting temperature [1, 16] was 72.3 ± 0.098 °C. For the same sequence, the duplex melting temperature [1, 17] was 63.81 ± 0.27 °C, the duplex melting temperature [1, 18] was 56.28 ± 0.17 °C and the duplex melting temperature [1, 19] was 73.48 ± 0.21 °C. For the same sequence, the duplex melting temperature [1, 20] was 64.85 ± 0.098 °C, the duplex melting temperature [1, 21] was 57.3 ± 0.083 °C and the duplex melting temperature [1, 22] was 74.36 ± 0.2 °C. The duplex melting temperature [1, 23] was 65.55 ± 0.094 °C, the duplex melting temperature [1, 24] was 57.98 ± 0.21 °C and the “duplex formation free energy ΔG50” value [2, 25] was -14.7 ± 0.46 kcal/mol. The “duplex formation free energy ΔG50” value [2, 26] was -12 ± 0.2 kcal/mol, the “duplex formation free energy ΔG50” value [2, 27] was -9.752 ± 0.037 kcal/mol and the “duplex formation enthalpy ΔH” value [3, 25] was -99.4 ± 7.2 kcal/mol. For the same sequence, the “duplex formation enthalpy ΔH” value [3, 26] was -90.6 ± 5.1 kcal/mol, the “duplex formation enthalpy ΔH” value [3, 27] was -78.1 ± 2.2 kcal/mol and the “duplex formation entropy ΔS” value [4, 25] was -262 ± 21 cal/mol/K. The “duplex formation entropy ΔS” value [4, 26] was -243 ± 15 cal/mol/K and the “duplex formation entropy ΔS” value [4, 27] was -212 ± 6.8 cal/mol/K.

Work on AATGTCGAACAGCAATT yielded a duplex melting temperature [1, 28] of 63.06 ± 0.22 °C, a duplex melting temperature [1, 5] of 56.56 ± 0.11 °C and a duplex melting temperature [1, 6] of 47.17 ± 0.34 °C. The duplex melting temperature [1, 7] was 65.17 ± 0.47 °C, the duplex melting temperature [1, 8] was 59.08 ± 0.19 °C and the duplex melting temperature [1, 9] was 50.7 ± 0.2 °C. It also gave a duplex melting temperature [1, 10] of 67.17 ± 0.36 °C, a duplex melting temperature [1, 11] of 61.32 ± 0.12 °C and a duplex melting temperature [1, 12] of 53 ± 0.2 °C. The duplex melting temperature [1, 13] was 68.45 ± 0.29 °C, the duplex melting temperature [1, 14] was 62.61 ± 0.066 °C and the duplex melting temperature [1, 15] was 54.22 ± 0.19 °C. It also gave a duplex melting temperature [1, 16] of 69.46 ± 0.13 °C, a duplex melting temperature [1, 17] of 63.46 ± 0.16 °C and a duplex melting temperature [1, 18] of 54.99 ± 0.23 °C. The duplex melting temperature [1, 19] was 70.74 ± 0.12 °C, the duplex melting temperature [1, 20] was 64.55 ± 0.19 °C and the duplex melting temperature [1, 21] was 56.34 ± 0.18 °C. It also gave a duplex melting temperature [1, 22] of 71.86 ± 0.12 °C, a duplex melting temperature [1, 23] of 65.45 ± 0.21 °C and a duplex melting temperature [1, 24] of 57.25 ± 0.45 °C. The “duplex formation free energy ΔG50” value [2, 25] was -12.5 ± 0.15 kcal/mol, the “duplex formation free energy ΔG50” value [2, 26] was -11.23 ± 0.064 kcal/mol and the “duplex formation free energy ΔG50” value [2, 27] was -9.264 ± 0.033 kcal/mol. The “duplex formation enthalpy ΔH” value [3, 25] was -74.4 ± 2.7 kcal/mol, the “duplex formation enthalpy ΔH” value [3, 26] was -74.3 ± 1.7 kcal/mol and the “duplex formation enthalpy ΔH” value [3, 27] was -63.7 ± 2.3 kcal/mol. The “duplex formation entropy ΔS” value [4, 25] was -192 ± 8 cal/mol/K, the “duplex formation entropy ΔS” value [4, 26] was -195 ± 5.2 cal/mol/K and the “duplex formation entropy ΔS” value [4, 27] was -169 ± 7 cal/mol/K.

With GATGCCGCAGCGACCTG the duplex melting temperature [1, 5] was 67.1 °C, the duplex melting temperature [1, 6] was 61.35 ± 0.33 °C and the duplex melting temperature [1, 7] was 76.6 ± 1.4 °C. For the same sequence, the duplex melting temperature [1, 8] was 69.756 ± 0.045 °C, the duplex melting temperature [1, 9] was 64.23 ± 0.086 °C and the duplex melting temperature [1, 10] was 78.68 ± 0.64 °C. For the same sequence, the duplex melting temperature [1, 11] was 72.16 ± 0.23 °C, the duplex melting temperature [1, 12] was 66.19 ± 0.1 °C and the duplex melting temperature [1, 13] was 80.46 ± 0.37 °C. It also gave a duplex melting temperature [1, 14] of 73.33 ± 0.28 °C, a duplex melting temperature [1, 15] of 67.4 ± 0.078 °C and a duplex melting temperature [1, 16] of 81.03 ± 0.31 °C. It also gave a duplex melting temperature [1, 17] of 74.43 ± 0.15 °C, a duplex melting temperature [1, 18] of 68.25 ± 0.097 °C and a duplex melting temperature [1, 19] of 82.09 ± 0.41 °C. The duplex melting temperature [1, 20] was 75.63 ± 0.13 °C, the duplex melting temperature [1, 21] was 69.34 ± 0.12 °C and the duplex melting temperature [1, 22] was 82.88 ± 0.26 °C. The duplex melting temperature [1, 23] was 76.48 ± 0.17 °C, the duplex melting temperature [1, 24] was 70.24 ± 0.13 °C and the “duplex formation free energy ΔG50” value [2, 26] was -13.6 ± 0.14 kcal/mol. The “duplex formation free energy ΔG50” value [2, 27] was -12.42 ± 0.065 kcal/mol, the “duplex formation enthalpy ΔH” value [3, 26] was -75.7 ± 2.1 kcal/mol and the “duplex formation enthalpy ΔH” value [3, 27] was -77.6 ± 1.3 kcal/mol. The “duplex formation entropy ΔS” value [4, 26] was -192 ± 5.9 cal/mol/K and the “duplex formation entropy ΔS” value [4, 27] was -202 ± 3.8 cal/mol/K.

GCTGAACTAACCACCA gave a duplex melting temperature [1, 28] of 62.4 ± 1.2 °C, a duplex melting temperature [1, 5] of 55.12 ± 0.072 °C and a duplex melting temperature [1, 6] of 47.5 ± 0.78 °C. For the same sequence, the duplex melting temperature [1, 7] was 65.29 ± 0.31 °C, the duplex melting temperature [1, 8] was 57.81 ± 0.12 °C and the duplex melting temperature [1, 9] was 50.39 ± 0.32 °C. The duplex melting temperature [1, 10] was 67.03 ± 0.25 °C, the duplex melting temperature [1, 11] was 60.12 ± 0.057 °C and the duplex melting temperature [1, 12] was 52.54 ± 0.26 °C. It also gave a duplex melting temperature [1, 13] of 68.36 ± 0.31 °C, a duplex melting temperature [1, 14] of 61.33 ± 0.085 °C and a duplex melting temperature [1, 15] of 53.74 ± 0.18 °C. It also gave a duplex melting temperature [1, 16] of 69.23 ± 0.2 °C, a duplex melting temperature [1, 17] of 62.13 ± 0.097 °C and a duplex melting temperature [1, 18] of 54.62 ± 0.096 °C. It also gave a duplex melting temperature [1, 19] of 70.53 ± 0.31 °C, a duplex melting temperature [1, 20] of 63.33 ± 0.14 °C and a duplex melting temperature [1, 21] of 55.67 ± 0.093 °C. It also gave a duplex melting temperature [1, 22] of 71.61 ± 0.45 °C, a duplex melting temperature [1, 23] of 64.15 ± 0.058 °C and a duplex melting temperature [1, 24] of 56.62 ± 0.25 °C. The “duplex formation free energy ΔG50” value [2, 25] was -12.7 ± 0.18 kcal/mol, the “duplex formation free energy ΔG50” value [2, 26] was -10.92 ± 0.045 kcal/mol and the “duplex formation free energy ΔG50” value [2, 27] was -9.252 ± 0.03 kcal/mol. The “duplex formation enthalpy ΔH” value [3, 25] was -77.7 ± 3.3 kcal/mol, the “duplex formation enthalpy ΔH” value [3, 26] was -73 ± 1.3 kcal/mol and the “duplex formation enthalpy ΔH” value [3, 27] was -69.9 ± 2.3 kcal/mol. For the same sequence, the “duplex formation entropy ΔS” value [4, 25] was -201 ± 9.6 cal/mol/K, the “duplex formation entropy ΔS” value [4, 26] was -192 ± 3.9 cal/mol/K and the “duplex formation entropy ΔS” value [4, 27] was -188 ± 7 cal/mol/K.

GAACCGTTGATGATCTC showed a duplex melting temperature [1, 28] of 63.4 °C, a duplex melting temperature [1, 5] of 54.79 ± 0.14 °C and a duplex melting temperature [1, 6] of 46.68 ± 0.22 °C. The duplex melting temperature [1, 7] was 65.33 ± 0.31 °C, the duplex melting temperature [1, 8] was 57.31 ± 0.16 °C and the duplex melting temperature [1, 9] was 49.91 ± 0.24 °C. It also gave a duplex melting temperature [1, 10] of 67.16 ± 0.13 °C, a duplex melting temperature [1, 11] of 59.39 ± 0.12 °C and a duplex melting temperature [1, 12] of 51.98 ± 0.084 °C. For the same sequence, the duplex melting temperature [1, 13] was 68.29 ± 0.098 °C, the duplex melting temperature [1, 14] was 60.41 ± 0.13 °C and the duplex melting temperature [1, 15] was 53.01 ± 0.082 °C. For the same sequence, the duplex melting temperature [1, 16] was 69.2 ± 0.096 °C, the duplex melting temperature [1, 17] was 61.285 ± 0.052 °C and the duplex melting temperature [1, 18] was 53.86 ± 0.097 °C. For the same sequence, the duplex melting temperature [1, 19] was 70.38 ± 0.088 °C, the duplex melting temperature [1, 20] was 62.38 ± 0.1 °C and the duplex melting temperature [1, 21] was 54.9 ± 0.045 °C. For the same sequence, the duplex melting temperature [1, 22] was 71.31 ± 0.079 °C, the duplex melting temperature [1, 23] was 63.117 ± 0.054 °C and the duplex melting temperature [1, 24] was 55.75 ± 0.06 °C. For the same sequence, the “duplex formation free energy ΔG50” value [2, 25] was -12.78 ± 0.09 kcal/mol, the “duplex formation free energy ΔG50” value [2, 26] was -10.93 ± 0.053 kcal/mol and the “duplex formation free energy ΔG50” value [2, 27] was -9.101 ± 0.027 kcal/mol. For the same sequence, the “duplex formation enthalpy ΔH” value [3, 25] was -80.1 ± 1.6 kcal/mol, the “duplex formation enthalpy ΔH” value [3, 26] was -78.8 ± 1.7 kcal/mol and the “duplex formation enthalpy ΔH” value [3, 27] was -70.3 ± 2.3 kcal/mol. For the same sequence, the “duplex formation entropy ΔS” value [4, 25] was -208 ± 4.8 cal/mol/K, the “duplex formation entropy ΔS” value [4, 26] was -210 ± 5 cal/mol/K and the “duplex formation entropy ΔS” value [4, 27] was -189 ± 7.2 cal/mol/K.
